Results: patent US20250277003A1

Columns and labels:
[1] = target: SARS-CoV-2 spike receptor-binding domain, wildtype (CoV-2 RBD WT) (SARS-CoV-2) (UniProt P0DTC2); assay: bead flow cytometry
[2] = target: BatCoV Anlong-103 spike RBD (BatCoV Anlong-103); assay: bead flow cytometry

Question: How did the gMFI [1] turn out when mAb CR3022 (antibody) was run?
Answer: 25800

Question: What about the gMFI [2] of the same substance?
Answer: 12900

Question: For mAb S309 (antibody), which gMFI [1] is on record?
Answer: 8370

Question: What about the gMFI [2] of the same substance?
Answer: 69.3
